Laboratory results: publication PMC10397247

Experiments:
4H570-bH = biological target: T1, 4H570-bH; test: two-hybrid library CCNG1;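 also: natural log of median RNA to DNA barcode read ratio; higher means stronger binding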
T1 chain: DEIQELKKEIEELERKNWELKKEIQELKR

4H3926-bH = biological target: T2, 4H3926-bH; test: two-hybrid library CCNG1;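 also: natural log of median RNA to DNA barcode read ratio; higher means stronger binding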
T2 chain: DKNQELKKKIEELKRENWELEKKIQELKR

4H3277-bH = biological target: T3, 4H3277-bH; test: two-hybrid library CCNG1;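 also: natural log of median RNA to DNA barcode read ratio; higher means stronger binding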
T3 chain: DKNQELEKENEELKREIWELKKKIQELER

4H3162-bH = biological target: T4, 4H3162-bH; test: two-hybrid library CCNG1;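 also: natural log of median RNA to DNA barcode read ratio; higher means stronger binding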
T4 chain: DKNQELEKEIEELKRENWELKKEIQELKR

4H3497-bH = biological target: T5, 4H3497-bH; test: two-hybrid library CCNG1;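 also: natural log of median RNA to DNA barcode read ratio; higher means stronger binding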
T5 chain: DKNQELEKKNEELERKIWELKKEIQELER

4H3414-bH = biological target: T6, 4H3414-bH; test: two-hybrid library CCNG1;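 also: natural log of median RNA to DNA barcode read ratio; higher means stronger binding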
T6 chain: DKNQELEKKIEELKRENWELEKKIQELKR

4H3462-bH = biological target: T7, 4H3462-bH; test: two-hybrid library CCNG1
T7 chain: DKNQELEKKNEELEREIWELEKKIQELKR

4H3175-bH = biological target: T8, 4H3175-bH; test: two-hybrid library CCNG1
T8 chain: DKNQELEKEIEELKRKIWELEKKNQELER

4H3298-bH = biological target: T9, 4H3298-bH; test: two-hybrid library CCNG1
T9 chain: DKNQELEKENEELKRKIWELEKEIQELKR

4H3628-bN = biological target: T10, 4H3628-bN; test: two-hybrid library CCNG1
T10 chain: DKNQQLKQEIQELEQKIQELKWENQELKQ

4H3613-bH = biological target: T11, 4H3613-bH; test: two-hybrid library CCNG1
T11 chain: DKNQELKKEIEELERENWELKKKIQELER

4H3817-bH = biological target: T12, 4H3817-bH; test: two-hybrid library CCNG1
T12 chain: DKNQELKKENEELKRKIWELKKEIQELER

4H3628-bH = biological target: T13, 4H3628-bH; test: two-hybrid library CCNG1
T13 chain: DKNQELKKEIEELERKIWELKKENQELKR

4H3858-bH = biological target: T14, 4H3858-bH; test: two-hybrid library CCNG1
T14 chain: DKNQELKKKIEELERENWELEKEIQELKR

4H906-bH = biological target: T15, 4H906-bH; test: two-hybrid library CCNG1
T15 chain: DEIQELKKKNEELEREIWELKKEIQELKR

4H3974-bH = biological target: T16, 4H3974-bH; test: two-hybrid library CCNG1
T16 chain: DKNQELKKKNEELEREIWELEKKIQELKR

4H591-bH = biological target: T17, 4H591-bH; test: two-hybrid library CCNG1
T17 chain: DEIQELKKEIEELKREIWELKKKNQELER

4H1899-bH = biological target: T18, 4H1899-bH; test: two-hybrid library CCNG1
T18 chain: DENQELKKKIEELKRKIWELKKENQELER

4H1985-bH = biological target: T19, 4H1985-bH; test: two-hybrid library CCNG1
T19 chain: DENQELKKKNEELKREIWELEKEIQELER

4H626-bH = biological target: T20, 4H626-bH; test: two-hybrid library CCNG1
T20 chain: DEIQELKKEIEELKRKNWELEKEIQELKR

4H850-bH = biological target: T21, 4H850-bH; test: two-hybrid library CCNG1
T21 chain: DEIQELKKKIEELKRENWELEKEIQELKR

P3-AA = biological target: T22, P3-AA; test: two-hybrid library CCmax; conditions: mean of both orientations
T22 chain: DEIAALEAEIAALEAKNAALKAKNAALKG

AP6-AA = biological target: T23, AP6-AA; test: two-hybrid library CCmax; conditions: mean of both orientations
T23 chain: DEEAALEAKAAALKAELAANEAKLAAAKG

P11-AA = biological target: T24, P11-AA; test: two-hybrid library CCmax; conditions: mean of both orientations
T24 chain: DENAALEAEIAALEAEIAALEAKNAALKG

P10-AA = biological target: T25, P10-AA; test: two-hybrid library CCmax; conditions: mean of both orientations
T25 chain: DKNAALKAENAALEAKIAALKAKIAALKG

AP8-AA = biological target: T26, AP8-AA; test: two-hybrid library CCmax; conditions: mean of both orientations
T26 chain: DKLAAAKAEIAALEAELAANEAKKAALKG

P9-AA = biological target: T27, P9-AA; test: two-hybrid library CCmax; conditions: mean of both orientations
T27 chain: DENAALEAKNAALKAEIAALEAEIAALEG

P4-AA = biological target: T28, P4-AA; test: two-hybrid library CCmax; conditions: mean of both orientations
T28 chain: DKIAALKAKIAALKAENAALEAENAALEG

GCN2_T = test: two-hybrid library CCmax
AP2-AA = biological target: T29, AP2-AA; test: two-hybrid library CCmax
T29 chain: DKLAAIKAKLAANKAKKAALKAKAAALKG

P7-AA = biological target: T30, P7-AA; test: two-hybrid library CCmax; conditions: mean of both orientations
T30 chain: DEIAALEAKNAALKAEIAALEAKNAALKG

P12-AA = biological target: T31, P12-AA; test: two-hybrid library CCmax; conditions: mean of both orientations
T31 chain: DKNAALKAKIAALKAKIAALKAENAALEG

AP7-AA = biological target: T32, AP7-AA; test: two-hybrid library CCmax
T32 chain: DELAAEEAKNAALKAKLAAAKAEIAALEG

AP4-AA = biological target: T33, AP4-AA; test: two-hybrid library CCmax; conditions: mean of both orientations
T33 chain: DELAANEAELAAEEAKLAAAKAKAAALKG

P8-AA = biological target: T34, P8-AA; test: two-hybrid library CCmax; conditions: mean of both orientations
T34 chain: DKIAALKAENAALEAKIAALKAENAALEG

P2-AA = biological target: T35, P2-AA; test: two-hybrid library CCmax; conditions: mean of both orientations
T35 chain: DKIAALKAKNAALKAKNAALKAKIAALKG

AP5-AA = biological target: T36, AP5-AA; test: two-hybrid library CCmax; conditions: mean of both orientations
T36 chain: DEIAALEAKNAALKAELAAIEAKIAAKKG

P1-AA = biological target: T37, P1-AA; test: two-hybrid library CCmax; conditions: mean of both orientations
T37 chain: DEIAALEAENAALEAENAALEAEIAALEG

AP3-AA = biological target: T38, AP3-AA; test: two-hybrid library CCmax; conditions: mean of both orientations
T38 chain: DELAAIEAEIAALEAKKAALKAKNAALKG

B1: 4H1899-bH (peptide)
chain: DENQELKKKIEELKRKIWELKKENQELER
interaction score (4H570-bH): -1.69
interaction score (4H3926-bH): -0.236
interaction score (4H3277-bH): -0.392
interaction score (4H3162-bH): -0.289
interaction score (4H3497-bH): 0.766
interaction score (4H3414-bH): -0.169
interaction score (4H3462-bH): 0.0285
interaction score (4H3175-bH): 0.0491
interaction score (4H3298-bH): -0.203
interaction score (4H3628-bN): 0.735
interaction score (4H3613-bH): -0.355
interaction score (4H3817-bH): 0.356
interaction score (4H3628-bH): 1.19
interaction score (4H3858-bH): -0.0187
interaction score (4H906-bH): -0.666
interaction score (4H3974-bH): 0.298
interaction score (4H591-bH): -0.968
interaction score (4H1899-bH): 0.337
interaction score (4H1985-bH): 1.05
interaction score (4H626-bH): -1.98
interaction score (4H850-bH): -0.44

B2: AP2-AA (peptide)
chain: DKLAAIKAKLAANKAKKAALKAKAAALKG
interaction score (P3-AA): -1.95
interaction score (AP6-AA): -1.74
interaction score (P11-AA): -0.526
interaction score (P10-AA): -1.76
interaction score (AP8-AA): -1.71
interaction score (P9-AA): -1.65
interaction score (P4-AA): -1.83
interaction score (GCN2_T): -1.81
interaction score (AP2-AA): -2.11
interaction score (P7-AA): -1.75
interaction score (P12-AA): -1.59
interaction score (AP7-AA): -1.6
interaction score (AP4-AA): -1.62
interaction score (P8-AA): -1.86
interaction score (P2-AA): -1.94
interaction score (AP5-AA): -1.24
interaction score (P1-AA): 0.511
interaction score (AP3-AA): -2.09
